Experimental data from US20210403567A1, “METHODS OF TREATING CERVICAL CANCER BY ADMINISTERING A PD-1 INHIBITOR” (priority 2020, published 2021).
Where “and” joins values, the source holds several entries; their conditions need not be identical. Equal entries are not always repeated. Where two headings read alike, the source gives them in different places.

Assays:
[1] = Phase I expansion cohorts: safety, treatment-emergent adverse events (NCI CTCAE 4.03); format: in vivo, human
Description: The combination therapy cohort enrolled patients for whom palliative hfRT was planned to a lesion that was causing some signs or symptoms. The radiated lesion was not followed as a target lesion for response assessments.
Assessments: Tumor histology was assessed per local pathology reports of tumor samples obtained at any time prior to study enrollment. […] Extensive safety evaluations were performed during screening and on Day 1 of each subsequent treatment cycle throughout the study. Routine safety evaluations were performed at each cemiplimab dosing visit. Tumor response assessments were performed by investigators, per RECIST 1.1, at the end of each 8-week treatment cycle. In combination therapy cohorts, the lesions selected for hfRT were not included in RECIST 1.1 assessments.
Statistical analysis of clinical data: The safety summaries and analyses were performed on the safety analysis set. Data were summarized using descriptive statistics, along with two-sided 95% confidence interval (CI), by dose cohort. Continuous variables were summarized with mean, median, standard deviation, minimum, and maximum. Categorical variables were summarized with frequency and percentage. Kaplan-Meier analysis was performed for progression-free survival (PFS) and OS.

[2] = system: cervical cancer; assay: Dose escalation cohort of the cemiplimab first-in-human study, cervical cancer patients; format: in vivo; settings: one cervical squamous patient, earlier response to cemiplimab+hfRT in dose escalation
Text: (Papadopoulos et al., Clin Cancer Res (December 2019) Epub). The sum total equates to a 17% objective response rate among cervical cancer patients enrolled in the phase I study (4/23 combined; 2/3 responding patients in dose escalation plus 2/20 in expansion cohorts). All responders had squamous histology.

[3] = system: recurrent or metastatic cervical cancer that has progressed after first-line platinum-based treatment
[4] = Grade 3-5, cemiplimab N=300, chemotherapy N=290
[5] = any grade, cemiplimab N=300, chemotherapy N=290
[6] = cemiplimab vs Gemcitabine (n = 108 vs 121)
[7] = cemiplimab vs Irinotecan (n = 26 vs 19)
[8] = cemiplimab vs Pemetrexed (n = 119 vs […])
[9] = cemiplimab vs Topotecan (n = 20 vs 21)
[10] = cemiplimab vs Vinorelbine (n = 31 vs 32)
[11] = subgroup with IC chemotherapy selected prior to randomisation: Gemcitabine (n = 108 vs 121)
[12] = subgroup with IC chemotherapy selected prior to randomisation: Irinotecan (n = 26 vs 19)

## cemiplimab
[1]; 1/10
  Treatment-related TEAEs (Grade 3): 10%
[1]; Grade ≥ 3, n = 10 per cohort
  Treatment-related TEAE: Any: 1 n (%)
  Treatment-related TEAE: Diarrhea: 0 n (%)
  Treatment-related TEAE: Fatigue: 1 n (%)
  Treatment-related TEAE: Hyponatremia: 0 n (%)
  Treatment-related TEAE: Hypothyroidism: 0 n (%)
  Treatment-related TEAE: Myalgia: 1 n (%)
  Treatment-related TEAE: Pneumonitis: 0 n (%)
[1]; any grade, n = 10 per cohort
  Treatment-related TEAE: Any: 7 n (%)
  Treatment-related TEAE: Diarrhea: 2 n (%)
  Treatment-related TEAE: Fatigue: 3 n (%)
  Treatment-related TEAE: Hyponatremia: 1 n (%)
  Treatment-related TEAE: Hypothyroidism: 2 n (%)
  Treatment-related TEAE: Myalgia: 1 n (%)
  Treatment-related TEAE: Pneumonitis: 1 n (%)
[1]; both cohorts combined (5/20)
  TEAE fatigue: 25%
  TEAE hypokalemia: 25%
[1]; both cohorts combined (7/20)
  TEAE diarrhea: 35%
[1]; four patients of 10 per cohort
  patients who experienced grade TEAEs: 40.0%
[1]; n = 10 per cohort
  TEAEs of any grade, regardless of treatment attribution: 9 patients
  discontinued treatment due to TEAEs: No patients
[2]
  response to retreatment after disease recurrence: complete response
[4]
  Sponsor-identified immune-related AEs: Led to death: 0 n (%)
  Treatment-emergent AEs that led to death: 5 (1.7) n (%)
  Treatment-related AEs: Led to death: 0 n (%)
[5]
  Number of patients with any TEAE resulting in death: 5 n (%) and 5 (1.7) n (%)
  Sponsor-identified immune-related AEs: Led to death: 0 n (%)
  Treatment-related AEs: Led to death: 0 n (%)
In vivo
  AEs observed, patients: 88%
  Grade 3 or higher AEs, patients: 45%
  Number of NCI grade 3/4/5 TEAEs: 299
  Number of TEAEs: 1969
  Number of patients with any TEAE leading to a dose interruption/delay: 75 n (%)
  Number of patients with any TEAE leading to a dose reduction: 0 n (%)
  Number of patients with any serious TEAE: 89 n (%)
  Number of serious TEAEs: 147
  Treatment-emergent AEs that led to discontinuation: 20 (6.7) n (%)
  anemia, patients: 25%
  asthenia, patients: 2%
  constipation, patients: 15%
  decreased appetite, patients: 15%
  fatigue, patients: 17%
  nausea, patients: 18%
  pyrexia, patients: less than 1%
  vomiting, patients: 16%
[3]; [6]
  OS HR, cemiplimab vs individual IC chemotherapy: HR; 0.76
  PFS HR, cemiplimab vs individual IC chemotherapy: HR; 0.73
[3]; [7]
  OS HR, cemiplimab vs individual IC chemotherapy: HR; 0.69
  PFS HR, cemiplimab vs individual IC chemotherapy: HR; 0.77
[3]; [8]
  OS HR, cemiplimab vs individual IC chemotherapy: HR; 0.71
  PFS HR, cemiplimab vs individual IC chemotherapy: HR; 0.70
[3]; [9]
  OS HR, cemiplimab vs individual IC chemotherapy: HR; 0.78
  PFS HR, cemiplimab vs individual IC chemotherapy: HR; 0.90
[3]; [10]
  OS HR, cemiplimab vs individual IC chemotherapy: HR; 0.77
  PFS HR, cemiplimab vs individual IC chemotherapy: HR; 1.21
[3]; gemcitabine, pemetrexed, vinorelbine, topotecan, irinotecan subgroups
  OS, PFS and ORR versus each IC chemotherapy treatment: improvements with cemiplimab versus each IC chemotherapy treatment
[3]; [11]
  Median OS (95% CI): 10.7 (9.2-13.3) months
  Median PFS (95% CI): 2.8 (2.6-4.3) months
  ORR: 17.6%
[3]; [12]
  Median OS (95% CI): 15.8 (11.2-NE) months
  Median PFS (95% CI): 6.9 (1.9-13.8) months
  ORR: 23.1%
